Results reported in publication PMC6839450 (ACS chemical biology, 2015).
Bridges are numbered along the chain shown (N, C = ends). Where no end group is shown, it is not given here. [ ]: non-standard residue; d: D form. The star is where a group is joined. FITC = O=C1OC2(c3ccc(O)cc3Oc3cc(O)ccc32)c2ccc(NC(=S)*)cc21; olefin residue = not defined here

Target: full-length BCL-XL (UniProt Q07817-1 1-233)
Assay: fluorescence polarisation

Sequence of full-length BCL-XL (Q07817 whole entry): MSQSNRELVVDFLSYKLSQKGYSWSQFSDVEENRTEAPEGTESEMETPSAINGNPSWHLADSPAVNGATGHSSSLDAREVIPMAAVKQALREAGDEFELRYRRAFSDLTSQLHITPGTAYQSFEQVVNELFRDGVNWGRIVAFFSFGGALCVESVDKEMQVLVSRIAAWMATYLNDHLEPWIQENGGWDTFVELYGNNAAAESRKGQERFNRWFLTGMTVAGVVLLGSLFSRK

Kd: 68 nM
B1: FITC-BIM SAHBA2 (peptide)
chain: {FITC}-EIWIAQELR[olefin residue]IGD[olefin residue]FNAYYA
modifications: staple 10-14; not fully specified; reading uncertain
